From US20250066456A1 (NOVAVAX, published 2025)

Tests used:
[1] = molecular target: T1, BV2523 (recombinant CoV S glycoprotein, BA.2) (SARS-CoV-2, UniProt P0DTC2 14-1273); assay: ELISA on coated rS
[2] = molecular target: T2, BV2542 (recombinant CoV S glycoprotein, BA.2.12.1) (SARS-CoV-2, UniProt P0DTC2 14-1273); assay: ELISA on coated rS
[3] = molecular target: T3, BV2540 (recombinant CoV S glycoprotein, BA.5) (SARS-CoV-2, UniProt P0DTC2 14-1273); assay: ELISA on coated rS
[4] = molecular target: T1, BV2523 (recombinant CoV S glycoprotein, …); assay: BLI, antibody on anti-mouse Fc biosensor, rS analyte
[5] = molecular target: BV2425 (recombinant CoV S glycoprotein, Alpha) (SARS-CoV-2, UniProt P0DTC2 14-1273); assay: as above
[6] = molecular target: T2, BV2542 (recombinant CoV S glycoprotein, …); assay: as above
[7] = molecular target: T4, BV2541 (recombinant CoV S glycoprotein, BA.4) (SARS-CoV-2, UniProt P0DTC2 14-1273); assay: as above
[8] = molecular target: BV2373 (recombinant CoV S glycoprotein, Prototype) (SARS-CoV-2, UniProt P0DTC2 14-1273); assay: as above
[9] = molecular target: BV2443 (recombinant CoV S glycoprotein, Gamma) (SARS-CoV-2, UniProt P0DTC2 14-1273); assay: as above
[10] = molecular target: T3, BV2540 (recombinant CoV S glycoprotein, …); assay: as above
[11] = molecular target: BV2465 (recombinant CoV S glycoprotein, Delta) (SARS-CoV-2, UniProt P0DTC2 14-1273); assay: as above
[12] = molecular target: T5, BV2561 (recombinant CoV S glycoprotein, BA.2.75) (SARS-CoV-2, UniProt P0DTC2 14-1273); assay: as above
[13] = molecular target: T6, BV2562 (recombinant CoV S glycoprotein, BA.4.6) (SARS-CoV-2, UniProt P0DTC2 14-1273); assay: as above
[14] = molecular target: BV2438 (recombinant CoV S glycoprotein, Beta) (SARS-CoV-2, UniProt P0DTC2 14-1273); assay: as above
[15] = molecular target: T7, BV2509 (recombinant CoV S glycoprotein, BA.1) (SARS-CoV-2, UniProt P0DTC2 14-1273); assay: as above
[16] = molecular target: T1, BV2523 (recombinant CoV S glycoprotein, …); assay: hACE2 receptor inhibition ELISA on coated rS; competitor hACE2-His
[17] = molecular target: T2, BV2542 (recombinant CoV S glycoprotein, …); assay: as above
[18] = molecular target: T4, BV2541 (recombinant CoV S glycoprotein, …); assay: as above
[19] = molecular target: T3, BV2540 (recombinant CoV S glycoprotein, …); assay: as above
[20] = molecular target: BV2589 (recombinant CoV S glycoprotein, BQ.1.1) (SARS-CoV-2, UniProt P0DTC2 14-1273); assay: as above
[21] = molecular target: T5, BV2561 (recombinant CoV S glycoprotein, …); assay: as above
[22] = molecular target: T6, BV2562 (recombinant CoV S glycoprotein, …); assay: as above
[23] = molecular target: T7, BV2509 (recombinant CoV S glycoprotein, …); assay: as above
[24] = molecular target: T8, RBD of a CoV S glycoprotein related to a CoV S glycoprotein from the SARS-CoV-2 omicron strain (SARS-CoV-2 omicron strain); assay: BLI, RBD-His on Ni-NTA biosensor, antibody analyte
T8 construct: domain: RBD

B1: 425.6 (antibody, V domains shown)
VH: VQLKQSGPSLVQPSQSLSITCTVSGFSLTSYGIHWVRQSPGKGLEWLGVIWRGGSTDYNAAFMSRLTITKDNSKSQVFFKMNSLQADDTAIYYCATHTEGDDVDYWGQGTSVTVSS
VL: QIVLTQSPAIMSVSPGEKVTMTCSASSTMSFMYWYQQKPGSSPRLLIYDTSNLASGVPVRFSGSGSGTSYSLTISRVEAEDAATYYCQQWNTYPLTFGAGTKLELKR
B1 showed an EC50 [1] of 0.028 mg/L, an EC50 [2] of 0.034 mg/L and an EC50 [3] of 0.014 mg/L. The Kd [4] was 3.69 pM, the koff [4] was 1.37e-07 s⁻¹ and the kon [4] was 38200 M⁻¹ s⁻¹. The Kd [5] was < 1 pM, the Kd [6] was 3.81 pM and the koff [6] was 1.51e-07 s⁻¹. For the same binder, the kon [6] was 40200 M⁻¹ s⁻¹, the Kd [7] was < 1 pM and the Kd [8] was < 1 pM. The Kd [9] was < 1 pM, the Kd [10] was 1.76 pM and the koff [10] was 1.5e-07 s⁻¹. The kon [10] was 85900 M⁻¹ s⁻¹, the Kd [11] was < 1 pM and the Kd [12] was < 1 pM. For the same binder, the koff [12] was < 1e-07 s⁻¹, the kon [12] was 46900 M⁻¹ s⁻¹ and the Kd [13] was < 1 pM. For the same binder, the Kd [14] was < 1 pM, the Kd [15] was 3.91 pM and the koff [15] was 1.54e-07 s⁻¹. It also gave a kon [15] of 41300 M⁻¹ s⁻¹, an IC50 [16] of 0.032 mg/L and an IC50 [17] of 0.028 mg/L. For the same binder, the IC50 [18] was 0.037 mg/L, the IC50 [19] was 0.028 mg/L and the IC50 [20] was > 3 mg/L. The IC50 [21] was > 5 mg/L, the IC50 [22] was 0.071 mg/L and the IC50 [23] was > 3 mg/L. It also gave a Kd [24] of 4890 pM, a koff [24] of 0.00123 s⁻¹ and a kon [24] of 272000 M⁻¹ s⁻¹.

B2: 322.3 (antibody, V domains shown)
VH: RVQLQQSGPELVKPGASVTISCKASGYIFTSDYIHWVKQRPGQGPEWIGWIYPGNINTKYNEKFKGKATLTADKSSSTAYMQLSSLTSEDSAVYFCARDDGNLYYYAMDYWGQGTSVTVSS
VL: NIVLTQSPASLAVSLGQRATISCRASESVDSYGSSFMHWYQQKPGQPPKLLIYLASNLESGVPARFSGSGSRTDFTLTIDPVEADDAATYYCQQNNEDPRTFGGGTKLEIK
Binder B2 has an EC50 [1] of 0.195 mg/L, an EC50 [2] of 0.225 mg/L and an EC50 [3] of 0.045 mg/L. The Kd [4] was 40.5 pM, the Kd [5] was 78.7 pM and the Kd [6] was 41.5 pM. The koff [6] was 1.22e-07 s⁻¹, the kon [6] was 2690 M⁻¹ s⁻¹ and the Kd [7] was < 1 pM. The Kd [8] was 57.1 pM, the Kd [9] was 107 pM and the koff [9] was 1.26e-07 s⁻¹. For the same binder, the kon [9] was 1180 M⁻¹ s⁻¹, the Kd [10] was 13.2 pM and the koff [10] was 1.46e-07 s⁻¹. For the same binder, the kon [10] was 11100 M⁻¹ s⁻¹, the Kd [11] was 78.7 pM and the Kd [12] was 4.47 pM. The Kd [13] was < 1 pM, the Kd [14] was 6.48 pM and the koff [14] was 1.24e-07 s⁻¹. It also gave a kon [14] of 20100 M⁻¹ s⁻¹, a Kd [15] of 87.4 pM and an IC50 [16] of 0.224 mg/L. For the same binder, the IC50 [17] was 0.866 mg/L, the IC50 [18] was 0.543 mg/L and the IC50 [19] was 0.779 mg/L. The IC50 [20] was 0.265 mg/L, the IC50 [21] was > 5 mg/L and the IC50 [22] was 0.411 mg/L. It also gave an IC50 [23] of 0.493 mg/L, a Kd [24] of 1.69 pM and a kon [24] of 138000 M⁻¹ s⁻¹.

B3: 35.13 (antibody, V domains shown)
VH: QVQLQQSGAELGKPGASVKLSCRASGYTFTRYYIYWVKQRPGQGLEWIGEINPSNGDTHFNEKFKTKATLTVDKSSSSAHIHLTSLTSEDSAVYYCSIHAYSFDFWGQGTTLTVSS
VL: EIQMTQSPSSMSASLGDRITITCQATQDIVKNLNWYQQKPGKPPSFLIYHATELAKGVPSRFSGSGSGSDYSLTISNLESEDFADYYCLQFYDFPFTFGAGTKLELKR
B3 showed an EC50 [1] of 0.053 mg/L, an EC50 [2] of 0.104 mg/L and an EC50 [3] of 1.03 mg/L. The Kd [4] was 8.43 pM, the koff [4] was 1.61e-07 s⁻¹ and the kon [4] was 19100 M⁻¹ s⁻¹. For the same binder, the Kd [5] was 3.22 pM, the Kd [6] was 7.87 pM and the koff [6] was 1.14e-07 s⁻¹. The kon [6] was 15000 M⁻¹ s⁻¹, the Kd [7] was < 1 pM and the koff [7] was < 1e-07 s⁻¹. The kon [7] was 22700 M⁻¹ s⁻¹, the Kd [8] was 5.29 pM and the koff [8] was 1.67e-07 s⁻¹. The kon [8] was 33000 M⁻¹ s⁻¹, the Kd [9] was 19.8 pM and the koff [9] was 1.7e-07 s⁻¹. The kon [9] was 9090 M⁻¹ s⁻¹, the Kd [10] was 7.23 pM and the koff [10] was 1.21e-07 s⁻¹. The kon [10] was 17600 M⁻¹ s⁻¹, the Kd [11] was 3.73 pM and the koff [11] was 1.42e-07 s⁻¹. The kon [11] was 41900 M⁻¹ s⁻¹, the Kd [12] was 6.87 pM and the Kd [13] was < 1 pM. For the same binder, the koff [13] was < 1e-07 s⁻¹, the kon [13] was 38500 M⁻¹ s⁻¹ and the Kd [14] was 15.2 pM. The koff [14] was 1.54e-07 s⁻¹, the kon [14] was 10500 M⁻¹ s⁻¹ and the Kd [15] was 9.82 pM. It also gave a koff [15] of 1.52e-07 s⁻¹, a kon [15] of 15500 M⁻¹ s⁻¹ and an IC50 [16] of 0.126 mg/L. For the same binder, the IC50 [17] was 0.177 mg/L, the IC50 [18] was > 5 mg/L and the IC50 [19] was > 3 mg/L. For the same binder, the IC50 [20] was > 3 mg/L, the IC50 [21] was 0.169 mg/L and the IC50 [22] was > 5 mg/L. The IC50 [23] was 0.097 mg/L, the Kd [24] was 1.93 pM and the kon [24] was 142000 M⁻¹ s⁻¹.
